Here are results for 94 variants from the supplement of paper PMC10567573.

The labels stand for the following.
B1: KRT13 (parent)
chain: KTIEELRDKILTATIENNRVILEI
B2: BTBD1 (parent)
chain: FVLGKGRGAAAAGGPQRIPAHRFV
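Note: lentivirally expressed fusions sorted by FACS into six bins by GFP to DsRed ratio, PSI derived from sequencing read proportions per bin multiplied by bin number.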

The first series covers variants of B1. The series can be described thus: protein stability index of a GFP-peptide fusion (GPS, HEK-293T) (PSI 1-6); higher = more stable. The settings on record: c terminus: a fixed tail appended.
Regarding KTIEELRDKILTATIENNRVIREI [L22R], the protein stability index was found to be 2.14.

For the variant KTIEELRDKILTATIENNRVIAEI [L22A], the protein stability index is 2.2.

KTIEELRDKILTATIENNRVICEI [L22C]: the protein stability index stood at 2.8.

Turning to KTIEELRDKILTATIENNRVIDEI [L22D], the protein stability index is 2.84. On to KWIEELRDKILTATIENNRVILEI [T2W], for which the protein stability index is 3.4.

With KLIEELRDKILTATIENNRVILEI [T2L], the protein stability index was found to be 2.35. As to KDIEELRDKILTATIENNRVILEI [T2D], the protein stability index is 2.88. Take KCIEELRDKILTATIENNRVILEI [T2C]: the protein stability index is 2.92. As to KHIEELRDKILTATIENNRVILEI [T2H], the protein stability index stood at 1.86. As for KNIEELRDKILTATIENNRVILEI [T2N], the protein stability index is 2.12. As to KMIEELRDKILTATIENNRVILEI [T2M], the protein stability index amounted to 2.73.

A further series covers variants of B2. The description is as above. The following applies: c terminus: a fixed tail appended.
Turning to FVAGKGRGAAAAGGPQRIPAHRFV [L3A], the protein stability index came to 2.17. Take FVDGKGRGAAAAGGPQRIPAHRFV [L3D]: the protein stability index came out at 2.2. As to FVEGKGRGAAAAGGPQRIPAHRFV [L3E], the protein stability index stood at 1.56. As for FVVGKGRGAAAAGGPQRIPAHRFV [L3V], the protein stability index amounted to 1.61. The same measure, in the same setting: the value for FVGGKGRGAAAAGGPQRIPAHRFV [L3G] was 1.61. Still for that read-out and setting: the value for FVQGKGRGAAAAGGPQRIPAHRFV [L3Q] was 1.3; that for FVKGKGRGAAAAGGPQRIPAHRFV [L3K] was 2.2.

As to FVFGKGRGAAAAGGPQRIPAHRFV [L3F], the protein stability index worked out at 1.61.

In the case of FVCGKGRGAAAAGGPQRIPAHRFV [L3C], the protein stability index was 1.67. As to FVNGKGRGAAAAGGPQRIPAHRFV [L3N], the protein stability index stood at 2.12. Consider FVMGKGRGAAAAGGPQRIPAHRFV [L3M], for which the protein stability index was 1.92. With FVWGKGRGAAAAGGPQRIPAHRFV [L3W], the protein stability index amounted to 1.14. On the same count and under the same terms, the value for FVYGKGRGAAAAGGPQRIPAHRFV [L3Y] was 1.79; that for FVIGKGRGAAAAGGPQRIPAHRFV [L3I] was 1.68.

Consider FVTGKGRGAAAAGGPQRIPAHRFV [L3T], for which the protein stability index was found to be 2.01. Consider FVHGKGRGAAAAGGPQRIPAHRFV [L3H], for which the protein stability index is 2.63. Regarding FVSGKGRGAAAAGGPQRIPAHRFV [L3S], the protein stability index is 3. As to FVLGDGRGAAAAGGPQRIPAHRFV [K5D], the protein stability index was determined as 1.89.

For the variant FVLGLGRGAAAAGGPQRIPAHRFV [K5L], the protein stability index was 1.59. Same read-out and setting: the value for FVLGIGRGAAAAGGPQRIPAHRFV [K5I] was 1.75. Same read-out and setting: the value for FVLGRGRGAAAAGGPQRIPAHRFV [K5R] was 2.08; that for FVLGPGRGAAAAGGPQRIPAHRFV [K5P] was 1.74; that for FVLGAGRGAAAAGGPQRIPAHRFV [K5A] was 1.2.

Consider FVLGMGRGAAAAGGPQRIPAHRFV [K5M], for which the protein stability index worked out at 2.82.

As for FVLGNGRGAAAAGGPQRIPAHRFV [K5N], the protein stability index stood at 2.04. In the case of FVLGFGRGAAAAGGPQRIPAHRFV [K5F], the protein stability index amounted to 1.95. In the case of FVLGHGRGAAAAGGPQRIPAHRFV [K5H], the protein stability index came to 1.95. The same measure, in the same setting: as for FVLGCGRGAAAAGGPQRIPAHRFV [K5C], the figure is 1.66; as for FVLGQGRGAAAAGGPQRIPAHRFV [K5Q], 1.8; as for FNLGKGRGAAAAGGPQRIPAHRFV [V2N], 3.23. The same measure, in the same setting: as for FYLGKGRGAAAAGGPQRIPAHRFV [V2Y], the figure is 1.8; as for FELGKGRGAAAAGGPQRIPAHRFV [V2E], 3.38. On to FCLGKGRGAAAAGGPQRIPAHRFV [V2C], for which the protein stability index stood at 2.18. FTLGKGRGAAAAGGPQRIPAHRFV [V2T]: the protein stability index stood at 2.35. In the case of FKLGKGRGAAAAGGPQRIPAHRFV [V2K], the protein stability index was determined as 2.85.

Consider FDLGKGRGAAAAGGPQRIPAHRFV [V2D], for which the protein stability index stood at 2.88. Turning to FILGKGRGAAAAGGPQRIPAHRFV [V2I], the protein stability index turned out to be 1.68.

Turning to FQLGKGRGAAAAGGPQRIPAHRFV [V2Q], the protein stability index came out at 3.

Take FWLGKGRGAAAAGGPQRIPAHRFV [V2W]: the protein stability index is 1.76. As for FLLGKGRGAAAAGGPQRIPAHRFV [V2L], the protein stability index came out at 1.97. Consider FMLGKGRGAAAAGGPQRIPAHRFV [V2M], for which the protein stability index came out at 2.21. As to FALGKGRGAAAAGGPQRIPAHRFV [V2A], the protein stability index came to 1.99. Same read-out and setting: the value for FSLGKGRGAAAAGGPQRIPAHRFV [V2S] was 3.35; that for FGLGKGRGAAAAGGPQRIPAHRFV [V2G] was 2.74.

On to FHLGKGRGAAAAGGPQRIPAHRFV [V2H], for which the protein stability index stood at 2.22. With FFLGKGRGAAAAGGPQRIPAHRFV [V2F], the protein stability index came out at 1.67. RVLGKGRGAAAAGGPQRIPAHRFV [F1R]: the protein stability index amounted to 3.35.

In the case of VVLGKGRGAAAAGGPQRIPAHRFV [F1V], the protein stability index was 2.21.

NVLGKGRGAAAAGGPQRIPAHRFV [F1N]: the protein stability index was 3.31. For the variant AVLGKGRGAAAAGGPQRIPAHRFV [F1A], the protein stability index was determined as 2.66. Regarding LVLGKGRGAAAAGGPQRIPAHRFV [F1L], the protein stability index worked out at 2.51. For HVLGKGRGAAAAGGPQRIPAHRFV [F1H], the protein stability index is 3.4. As for QVLGKGRGAAAAGGPQRIPAHRFV [F1Q], the protein stability index turned out to be 3.28. As to MVLGKGRGAAAAGGPQRIPAHRFV [F1M], the protein stability index was found to be 2.29.

For the variant GVLGKGRGAAAAGGPQRIPAHRFV [F1G], the protein stability index is 3.51.

For WVLGKGRGAAAAGGPQRIPAHRFV [F1W], the protein stability index stood at 1.95.

With SVLGKGRGAAAAGGPQRIPAHRFV [F1S], the protein stability index is 2.92. On to TVLGKGRGAAAAGGPQRIPAHRFV [F1T], for which the protein stability index worked out at 3.32.

Regarding CVLGKGRGAAAAGGPQRIPAHRFV [F1C], the protein stability index was determined as 2.22.

Take KVLGKGRGAAAAGGPQRIPAHRFV [F1K]: the protein stability index was 2.99. Take PVLGKGRGAAAAGGPQRIPAHRFV [F1P]: the protein stability index came to 3.04. For YVLGKGRGAAAAGGPQRIPAHRFV [F1Y], the protein stability index amounted to 1.26. Consider DVLGKGRGAAAAGGPQRIPAHRFV [F1D], for which the protein stability index came out at 3.02. For the variant IVLGKGRGAAAAGGPQRIPAHRFV [F1I], the protein stability index is 1.91. FVLFKGRGAAAAGGPQRIPAHRFV [G4F]: the protein stability index was 2.27. As for FVLMKGRGAAAAGGPQRIPAHRFV [G4M], the protein stability index worked out at 1.38. On to FVLQKGRGAAAAGGPQRIPAHRFV [G4Q], for which the protein stability index worked out at 1.4. Regarding FVLAKGRGAAAAGGPQRIPAHRFV [G4A], the protein stability index stood at 1.73.

On to FVLWKGRGAAAAGGPQRIPAHRFV [G4W], for which the protein stability index was 1.2. As for FVLIKGRGAAAAGGPQRIPAHRFV [G4I], the protein stability index came to 1.98.

With FVLVKGRGAAAAGGPQRIPAHRFV [G4V], the protein stability index was determined as 2.3. As to FVLKKGRGAAAAGGPQRIPAHRFV [G4K], the protein stability index amounted to 1.64. Same read-out and setting: as for FVLYKGRGAAAAGGPQRIPAHRFV [G4Y], the figure is 2.21; as for FVLEKGRGAAAAGGPQRIPAHRFV [G4E], 1.94; as for FVLLKGRGAAAAGGPQRIPAHRFV [G4L], 2.39. For the variant FVLDKGRGAAAAGGPQRIPAHRFV [G4D], the protein stability index amounted to 1.53. In the case of FVLCKGRGAAAAGGPQRIPAHRFV [G4C], the protein stability index was 1.54. In the case of FVLTKGRGAAAAGGPQRIPAHRFV [G4T], the protein stability index was found to be 1.46. FVLPKGRGAAAAGGPQRIPAHRFV [G4P]: the protein stability index is 2.59.

FVLNKGRGAAAAGGPQRIPAHRFV [G4N]: the protein stability index worked out at 2.36. On to FVLHKGRGAAAAGGPQRIPAHRFV [G4H], for which the protein stability index was 2. Still for that read-out and setting: as for FVLSKGRGAAAAGGPQRIPAHRFV [G4S], the figure is 1.61; as for FVLRKGRGAAAAGGPQRIPAHRFV [G4R], 2.33.
